In the DeepSol protein solubility set:

Experiment: soluble on expression in E. coli; label from the status in PepcDB or PDB records

| Sequence | soluble on expression in E. coli |
| --- | --- |
| GPGSMASKKGGKKANGEDLEAAILRWFECEGEPATVQSLTDALGSKFGKQLVQNTLEQCLKEQKLLAKDIKKARFYFLASPAPGSNDEGSDVGSHKIDIVKQLRQLRNGVSMLSSELSVLLQAQTSSKRATTIASLVSECAALRSRLQALHVIAGKESSCVSDDVSLLIHRYKRARELWRDRKRITVCVIDAVLGDSCGPQELEDIFGLSTDEQMNLCLSGTALTLPATVSS | not soluble |
| GPGSMDGRNGSKRARSEPANGPNQSNVGTSGVEEPHVEEVPARDPELERQLDRLNIDDNLKESLRGLSPSTRGEVMNDIIRSETIERASSLMEQANLLSLIELRRLPELMEEGMSSQHYRADVDDDSELHEFGQALEDMQADGQSPSPQRGRPHGMLHTPGPLILEFLRAFAAGTHAAFADAAGVSEHLNILSELAAQRAMGVTEDVDNMSYEELLELEDKIGYVSRGVKPEDVQKCVKDVPTPHEGNCVVCQCEWSDNAETAPAVVELNRCKHVFHRTCIREWLLKNKKCPVCTQEVV | soluble |
| GPGSMEDYKAKGNDAFKAKRYQEAIDWYTKAIELDPNGEASGALYSNRAGSWQNLNNFEKAAADSEQCIRLRPDWLKGYFRLGVAMESMVKYDEAQKAFQKALQLSPGNEEVMDKLHAINTKVRERNEKTKSQQCKTPEEAKQLGNSFFKDGKYDQAAEFYTRAIELQTEPVKEKAVYYTNRAACHQQTHMYSLMVDDCNAAIEIDPANVKAYLRRGIAYEGMEKWKLALEDYTKAQSISPGVAGASQGILRCQRVLRS | soluble |
| GPGSMEFIMNSVYAIDPIYLLMSAVAQQMLAMAWFDCIVGQIDRYYVAADKGVRRVEHAITRYPGIMVSATTFACSLLRSLVVLTVVSMCNCSTLYQYQSAAMVAVMIGMMRVHRTFSCHRPIQIFVTETGYEMAAAMTAAVVCYYMKKYNF | soluble |
| GPGSMFYPNSPQTSPQLTQIPYGQQYAMMQRQIQQPYHPFATTEPQARLYPYHYQGPIQQEQGGFITQQSTAASPQYVQMRVTPVDQSIMSGYPNQTANGSSSSSFNYNIHPQQQQQQQQQQQLRHHAMPVGSVPLQDDRYRKQLIVNYLAPDVTSTDLHELFSRFGELDGARIIYDKQTNMSKGYGFVYFCHAEDAKEAVERMSGYEFHGKWLKVGYSTNPLNIVPSNSSPYVHAGSRGAAG | not soluble |
| GPGSMGQSIGDRLQNLVLRDEERARLLSLQNTKSILPSLAPSRRLLLVHAIMTLVVPYVTRKVQRKVLEEGWEREPVPTARYRIAKALRYAVVTWSLLSLANTFNFLMTGRYRTLVERILSLRLVYGSQRMMRFTNLLYMNQHVQWQTWMSLFSALSLGR | not soluble |
| GPGSMGRNKKSKATAHAQACSDGEREEEHGAVPTTTLPARAEGCEEENGASAAAADGAQGTPDHHSGRCSERGRDSDDDAPKTKKEYRGNRLKKLEVQRKKGKGKGANEDDKAEEAAREGDAHEEPLVVTRQRAVEVLYCPICTFPAEMCEFSGIVEKCRPWLLEHAADLADAEERGRKRRILTEKDRLEAMLEGRGVKKALERIVVLEVEKRTGRRMITSVFGMDLFGFNLKDVSRDWRKRFSCGAGVRAAEEGKHQDCIDIQGNVVDQLADMLITKYKIPKESVYLMEGKKKVPYPY | not soluble |
| GPGSMISLDAYVRYVYQYSSPTTTEHLRQTVWGPLGLCSGASASPKPISGAQPCWRDASVSHEVLYAVPPITTNVRCVGSRIDAHLTDLLEALPLSSPTVPPTTPAAATLASRFARPSRLATIGLPFCLCVKPQTEHLTPWSLLCTSSSSPTDASNPEMNRKQPSRPLVLVVDTGAAEAVLRGSDLYAPGIVTASRPFHAGERAVVAFYVERVAGTGDEAQNGSAEAPCRLVCALPTGATLSAEQFEPLDMDVDYQDKHQQVDMLAGRSTFLVCIGSGVTCMEWKTVMSRSVHGTALRMEWTPQGQPSRATLRALLGITKGTEDSNARSSTPLPQPPSSGVEEGEERAADVFFLQNYSSMVPVALLVQHLSPAALRRAWTHSDDADQGRSPVPCTILDACAAPGGKTSLLLSLLQERAEQERTAMAEAAIPLPSATVATEPFRVVCCERSRPRQEQLMSLLHRHFASHLAAPSASPSLNSTPAVDVPYVTRVLESRCVDTNKFLKRKLTEAAGSSDGSAASHTASFDAVLLDPPCTGMGLRPKLMPHVQSIASIQRSADYQRKLFDSCIRHIRGSPTSPGVIVYSTCTTTLEENEANVLHFLCTYPSVRLARARTAAQRALCGLSTVRSYGAQHDTDGSHGSTCLCSCLLRNEITEVQLAKERAAAAEGLSSTDPLLLLRFMPRPLDIYDDISEDGVGFFVAVFLCSGYTDA | not soluble |
| GPGSMKNISNKRIIKDLKLLLEEVDANNEANSSGSPHSAAIFSVHTDTIYNWILKVKAPADSVYGGAGNTYQLSVLFSEDYPHEPPTVRFVTPVYSPLVTEEGGICDRMVNDVWTPDQRASDVIKLVLDRVFSQYKNHSDDDVNPEARHYLEKFPQEFAARVRRGG | soluble |
| GPGSMLGGRHFQRKYEKKQKKKEAKKASQGPLRGAGGSSGVRAAVAAAAGAAVKRKDGSTLKGPVVSHGDFMASRDSANNRKNVPFSSKMEEKVYRKEHRVPKYNSIVDPERQNLAKAAGASSAAQRRRVLRQKGGDDLLDHFRERLNASTFRLLNEQVYNAPTTLASRLLREEATFRDYHTGYHQQLMQWPINPNKLIVESLLGDRRGRFLANKGKSMPGHIPPSWVVADMGCGEAQIAAALKPKGYTVHSFDFFALNSLVTVADTTKVPLADNHVDVCVFSLSLMATDYVKSLFEAFRVLKPKRLLKIIEVRSRVPFPRKFAELVEDIGFDVDYSDVAGDYFVAFDFIKKDGQAAANTQLRHEPGDVLVPSLYKKR | soluble |
| GPGSMLRSEVLDAEVAKSVEAYSTAVTPFVERRSGLYLTKFEVARIIGERAKQIASGAAMSLPGTGSGLDSVETAERCTNPRSLAVDPVMMAKYDLLQRKIRMLVRRVWPDGAVETIPVNELMVDVTMLDLQY | soluble |
| GPGSMLRVSLACRVTAARSAAPHTTSSSSSLVESVTSVFRSSRYLRHAPPRLYVTCSHDQGIPLHGCGRHMTTVLDVSREASPNAPPHTQSIYLLTSTSISDVEFKDSAAQSQVLVGLPQVQSIDAIHRFCDTYAATLSRVHHILLPGGVSPLQSSLIKQLLEHIPQARLVCNGFGHALLTNATFHDGVQRAVLENEPDAPPELLRFAALPADRVSSMADGDTVAVDVAKSEAESSAPVAARALRVVAVKSKGQQQRRREHSQTHHPAHFTNEALFYYDDVFNALFVGHTLHRLPWLPTVLTEASRELFLPMPPPLATQRPLSRPSPLLDTWRVLESCEDVVEALRRTPELERVLAGSYGELCGNVEDCIAGLESSSDALERLRSRLARRLTTDTSRDVHRWSTALLKRIVHEVVCTQKASEPTSSEVQEAFLCWARTDGEWGRLSTCLAHAAMVLPPSTETGEADGASSSAADSFAAHDSVPAAGATAAGESAAPEALQGTHGVELLVAVFNRKGLQGLIRTVQRETIDVQVFLAMSEEDLKKVFKATFGITKRLMLLQDELRKNL | not soluble |
| GPGSMMEATERRRKRERNERNDERRDDCEVLAKTDEKRTIVEELFQRLQSLDHTHMELEARLCRRAEVSDKSGSTSSEREWKGRRARKTRTEVMPGVAEEDYKRIEEFCLDKGKEGSVTRSTTRDVSFGQWRYTYTSGKPSECIACIRKERLFVLDVPVPSGAYDIRFSACTEITGELPSPNFAPTRGYTRHKDRLSVTDGLFRYDLTRVRDKHTTGYEVEVEFLLKDNDEKKITDSHVEELVGRALSLATLTASEG | soluble |
| GPGSMMVGKAPKNCVHIGLCVLYSGSGFRGLQIQVHAPTCHTVEGVLIQALKDAGIIADVVRGRPAGEHHHFARSCRTDRGVHAIRNMVSLFVPKEVFEKMGQAEGICEKLNRQLPATVRVANVMQLSGSFIPRHCCNRRVYRYMLPLYALLPPCDTWAAVDKYYPGCLAHVQALAEEAAAAQRTQYSIPYVDLEKMNAVARPADAQALPSSWLRDLKASADRCNQVLRSHFTGSRRYHNFSVDIDSNRSGVSAKVIQPTTDEALRAIYRSEVCPRLFFFPCSTKGGAADEAPVPVHGESRTEYDMNLLRYPPRTPTSPEDTVGGSAAASTTTTPTGTSTTPATCLSPNTTALPFLFFQIEGCSFLLNMIRKIIGSVLAVCRGARESILEDAFSPECRVTTPLAPGPYLYLAQSTYHGYDRSIGGAGNAHQPGRLKTVQDAWGGAVSEAAELFAFHKIAADIVDVDLNAMPPLDDILAARDRAREASRPHTAVEDAHLAEMKEYKPVLPTRIPWPASSDMTVFLRLLRVHNWNVRPIQLDPACKALREIKNRKERLTASSVAAAASPGAEASKAGEADGGDTRANEATVEQAATPTGDAWRIRSEGSSTGGVPEGGEDGWLYVADTPEEASVQRQAYFASLWKRARPWEYDDATGKSLIHGGEVGTEDDFDDGDGSTARPRRHRRV | soluble |
